The Kd is the constant that tells how readily two partners part at equilibrium. As a reminder, the koff is the first-order rate constant of dissociation. As usually defined, the kon is the rate constant with which the complex forms.

Where only a bound is given, the exact number is not on record here.

For assay [1], the target named is T1, recombinant human sc-uPA (human, UniProt P00749 21-431). Description: cell-based or functional assay.
Assay [2] concerns the target T1, recombinant human sc-uPA. Put plainly: SPR (Biacore T200), mAb immobilised, sc-uPA as analyte. As to the method: (§1) Affinities of the anti-uPA mAbs towards human and cynomolgus sc-uPA (SEQ ID NO: 1 and 3) were measured by SPR using a Biacore T200 instrument (GE Healthcare). These studies were performed using a direct binding procedure. […] Injection time was 60 sec., followed by 180 sec. dissociation. Regeneration was performed by injection of two short pulses of glycine-HCl pH 1.5.
(§2) The kinetic parameters (kₐ, kd and KD) for the interaction were calculated using a 1:1 interaction Langmuir fitting model.
(§3) Results are shown in Table 2 Association rate constant (ka) and Dissociation rate constant (kd) were measured. Equilibrium dissociation constant is calculated as KD=kd/ka.

Assay [3] addresses T2, recombinant cynomolgus sc-uPA (cynomolgus monkey, UniProt P16227 29-433 (Papio cynocephalus entry)).
T2 construct: The exact signal peptide is said not to be established; also called cyno pro-uPA; cyno pro-uPA-6xHis
The description is as above. As to the method:
as §1, §2, §3

The target in assay [4] is T1, recombinant human sc-uPA. Put plainly: cell-based or functional assay. The source holds these as a separate data set.
For assay [5], the target named is recombinant human tc-uPA (R&D Systems, #1310-SE) (human, UniProt P00749 21-178; P00749 179-431). Put plainly: cell-based or functional assay.
In assay [6] the target is T2, recombinant cynomolgus sc-uPA. Put plainly: cell-based or functional assay.
For assay [7], the target named is endogenously derived human uPA (primary human M1/M2 macrophages; human neutrophil granulocytes) (human, UniProt P00749 21-431). Put plainly: cell-based or functional assay.
Assay [8] concerns the target T1, recombinant human sc-uPA. Description: SPR (Biacore), mAb immobilised, sc-uPA as analyte, 25 C. Here is the method: (§4) In order to compare with murine mAb, the binding profile to recombinant human sc-uPA protein (SEQ ID NO: 1) and cynomolgus sc-uPA (SEQ ID NO: 3) was measured by surface plasmon resonance (SPR).
(§5) The experiments were performed on a Biacore™ instrument (GE Healthcare) and analysed with the BIAcore 4000 Evaluation Software. […] Recombinant human sc-uPA and cynomolgus sc-uPA proteins were diluted in HBS-N (GE Healthcare Cat BR-1006-70) with 1% BSA buffer with a dilution factor 3× ranging 1000-0.13 nM. Recombinant human sc-uPA and cynomolgus sc-uPA proteins were injected for 60 s, followed by a 600 s dissociation phase. Binding curves were measured at 25° C. with a flow rate of 30 μL/min. Regeneration of the chip surface was performed with pH1.5 Glycine for 25 s at 30 μl/min. Determination of the kinetic parameters was performed by fitting with a 1:1 binding model. Kinetic parameters were calculated and are stated in Table 14 below.

Assay [9] deals with T2, recombinant cynomolgus sc-uPA. The assay is described as above. Here is the method: as §4, §5

B1: 0266-0000-0015 (antibody, IgG1, V domains shown)
VH: QIQLVQSGPELKKPGETVRISCKASGYTFTDYGMNWIKQTPGKGLKWMGWINTYSGEPTYSDEFKGRFAFSLETSASTASLQINNLKNEDMATYFCARDFDDYDSSRYFDVWGAGTTVTVSS
VL: DIVMSQSPSSLGVSVGEKLTMTCKSSQSLLYSSYQKNFLAWYQQKPGQSPKLLISWASTRDSGVPDRFTGSGSGTDFTLTISSVKAEDLAVYYCQQYYIYPPTFGGGTKLEIK
notes: also called hybridoma m-uPA-1F58A1
As for B1, in the assay with recombinant human sc-uPA [1], the “IC50, coupled zymogen activation assay, sc-uPA immobilized on uPAR of U937 cells” value (“IC50 … of U937 cells” below) is less than 0.7 nM. Further, in the assay with recombinant human sc-uPA [2], the Kd is 0.37 nM, the koff amounted to 0.000381 s⁻¹ and the association rate constant (kon) was determined as 1.03e+06 M⁻¹ s⁻¹. In assay [3], the dissociation constant Kd is 5.32 nM, the koff stood at 0.00717 s⁻¹ and the kon was found to be 1.35e+06 M⁻¹ s⁻¹. In the assay with recombinant human sc-uPA [4], the “IC50, coupled zymogen activation assay (Ex. 5)” value is less than 0.7 nM and the “IC50, sc-uPA activation assay (Ex. 8)” value came to 3 nM. Further, the “IC50, tc-uPA catalytic assay (Ex. 7)” value in assay [5] is 100 nM.

B2: 0266-0000-0010 (antibody, IgG1, V domains shown)
VH: DVKLVESGGGLVKPGGSLKLSCVASGFTFSSYTMSWVRQTPEKRLEWVATISGGGSHIYYADSVKGRFTISRDNAKNTLYLQMSSLKSEDTAIYYCTRDGRDGSWFAYWGQGTLVTVSA
VL: DIVMTQSPATLSVTPGDRVSLSCRTSQSIGDYLHWYQQKSHESPRLLIKYVSQSISGIPSRFSGSGSGSDFTLSINSVESEDVGVYYCQNSHSFPLTFGSGTKLELK
Turning to B2, the “IC50 … of U937 cells” value in the assay with recombinant human sc-uPA [1] was less than 0.7 nM. Moreover, the “IC50, coupled zymogen activation assay with cynomolgus sc-uPA” value in assay [6] was 0.9 nM. Also, in the assay with recombinant human sc-uPA [2], the Kd is 1.02 nM, the koff worked out at 0.000345 s⁻¹ and the on-rate constant (kon) was found to be 340000 M⁻¹ s⁻¹. Besides, in assay [3], the Kd worked out at 0.121 nM, the koff came out at 5.74e-05 s⁻¹ and the kon amounted to 473000 M⁻¹ s⁻¹. Further, in the assay with recombinant human sc-uPA [4], the “IC50, coupled zymogen activation assay (Ex. 5)” value is less than 0.7 nM and the “IC50, sc-uPA activation assay (Ex. 8)” value was 5 nM. In [5], the “IC50, tc-uPA catalytic assay (Ex. 7)” value was found to be 113 nM.

B3: 0266-0000-0043 (antibody, human IgG4 S228P, kappa, V domains shown)
VH: DVKLVESGGGLVKPGGSLRLSCAASGFTFSSYTMSWVRQAPGKGLEWVATISGGGSHIYYADSVKGRFTISRDNAKNSLYLQMNSLRAEDTAVYYCTRDGRDGSWFAYWGQGTLVTVSS
VL: DIVMTQSPAFLSVTPGEKVTISCRTSQSIGDYLHWYQQKPDQSPKLLIKYVSQSISGIPSRFSGSGSGSDFTFTISSLEAEDAATYYCQNSHSFPLTFGGGTKVEIKR
notes: also called rec0266-0000-0043
With B3, the “IC50 … of U937 cells” value with recombinant human sc-uPA [1] is less than 0.7 nM. In addition, the “IC50, plasmin generation by human M1/M2 macrophages” value in [7] came out at 2.1 nM. In the assay with recombinant human sc-uPA [8], the Kd is 1.78 nM, the koff worked out at 0.0009 s⁻¹ and the kon came to 506000 M⁻¹ s⁻¹. Further, in assay [9], the dissociation constant Kd came out at 0.112 nM, the koff is 0.000164 s⁻¹ and the kon stood at 1.46e+06 M⁻¹ s⁻¹.

(Values after patent US20160159924A1 (Novo Nordisk, published 2016).)
